Test results: patent WO2009147196A1

Experiments:
EYFP-Rev (HIV-1) [1] = target: EYFP-Rev (HIV-1) (UniProt P04618); test: FRET Rev-multimerization assay, negative control ECFP + EYFP-Rev
EYFP-Rev (HIV-1) [2] = target: EYFP-Rev (HIV-1) (UniProt P04618); test: FRET Rev-multimerization assay, purified proteins mixed

EYFP-Rev (HIV-1), sequence (P04618 whole entry): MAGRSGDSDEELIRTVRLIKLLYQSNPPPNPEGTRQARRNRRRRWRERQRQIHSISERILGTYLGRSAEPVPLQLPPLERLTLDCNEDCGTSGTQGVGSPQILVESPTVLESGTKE

Substance | FRET efficiency (EYFP-Rev (HIV-1) [1]) [%] | FRET efficiency (EYFP-Rev (HIV-1) [2]) [%]
free ECFP | 1.6 | –
ECFP-Rev (from UniProt P04618 1-116) | – | 20 to 35
